# Results: patent US20260242735A1 (UNIVERSIT T BASEL, published 2026)
# B1: Refmab #1 (antibody, V domains shown)
# VH: EVQLVQSGAEVKKPGSSVKVSCKASGYTITDSNIHWVRQAPGQSLEWIGYIYPYNGGTDYNQKFKNRATLTVDNPTNTAYMELSSLRSEDTAFYYCVNGNPWLAYWGQGTLVTVSS
# VL: DIQLTQSPSTLSASVGDRVTITCRASESLDNYGIRFLTWFQQKPGKAPKLLMYAASNQGSGVPSRFSGSGSGTEFTLTISSLQPDDFATYYCQQTKEVPWSFGQGTKVEVK
# notes: In the alanine scan antibodies were used as IgG or Fab; also called hP67.6
# B2: Refmab #2 (antibody, V domains shown)
# VH: QVQLVQSGAEVKKPGSSVKVSCKASGGTFSDYAISWVRQAPGQGLEWMGRIIPILGVADYAQKFQGRVTITADKSTRTAYMELSSLRSEDTAVYYCARNWADAFDIWGQGTMVTVSS
# VL: DIQLTQSPSSLSASVGDRVTITCRASQGISSVLAWYQQKPGKAPKLLIYDASSLESGVPSRFSGSGSGTDFTLTISSLQPEDFATYYCQQFDSSITFGQGTKLEIK
# notes: In the alanine scan antibodies were used as IgG or Fab
# B3: Refmab #3 (antibody, V domains shown)
# VH: QVQLVQSGAEVKKPGSSVKVSCKASGYTFTDYNMHWVRQAPGQGLEWIGYIYPYNGGTGYNQKFKSKATITADESTNTAYMELSSLRSEDTAVYYCARGRPAMDYWGQGTLVTVSS
# VL: DIQMTQSPSSLSASVGDRVTITCRASESVDNYGISFMNWFQQKPGKAPKLLIYAASNQGSGVPSRFSGSGSGTDFTLTISSLQPDDFATYYCQQSKEVPWTFGQGTKVEIK
# notes: as for B2
# B4: Refmab #4 (antibody, V domains shown)
# VH: QVQLVQSGAEVKKPGESVKVSCKASGYTFTNYGMNWVKQAPGQGLEWMGWINTYTGEPTYADKFQGRVTMTTDTSTSTAYMEIRNLGGDDTAVYYCARWSWSDGYYVYFDYWGQGTSVTVSS
# VL: DIVMTQSPDSLTVSLGERTTINCKSSQSVLDSSTNKNSLAWYQQKPGQPPKLLLSWASTRESGIPDRFSGSGSGTDFTLTIDSPQPEDSATYYCQQSAHFPITFGQGTRLEIK
# notes: as for B2
# B5: Refmab #1 (antibody, V domains shown)
# VH: EVQLVQSGAEVKKPGSSVKVSCKASGYTITDSNIHWVRQAPGQSLEWIGYIYPYNGGTDYNQKFKNRATLTVDNPTNTAYMELSSLRSEDTAFYYCVNGNPWLAYWGQGTLVTVSS
# VL: DIQLTQSPSTLSASVGDRVTITCRASESLDNYGIRFLTWFQQKPGKAPKLLMYAASNQGSGVPSRFSGSGSGTEFTLTISSLQPDDFATYYCQQTKEVPWSFGQGTKVEVK
# notes: The alanine scan used IgG or Fab; also called hP67.6
# B6: Refmab #2 (antibody, V domains shown)
# VH: QVQLVQSGAEVKKPGSSVKVSCKASGGTFSDYAISWVRQAPGQGLEWMGRIIPILGVADYAQKFQGRVTITADKSTRTAYMELSSLRSEDTAVYYCARNWADAFDIWGQGTMVTVSS
# VL: DIQLTQSPSSLSASVGDRVTITCRASQGISSVLAWYQQKPGKAPKLLIYDASSLESGVPSRFSGSGSGTDFTLTISSLQPEDFATYYCQQFDSSITFGQGTKLEIK
# notes: The alanine scan used IgG or Fab
# Legend:
# Assay in all cases: alanine scan, flow cytometry, HEK293-T;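 note: antibody binding to each alanine-substituted CD33 mutant expressed transiently in HEK293-T, read as fluorescence minus background, mean of duplicates, relative to wild-type CD33 set as 100%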
# human CD33 G172A = human CD33 G172A (human, UniProt P20138 18-364)
# human CD33 V221A = human CD33 V221A (human, UniProt P20138 18-364)
# human CD33 T208A = human CD33 T208A (human, UniProt P20138 18-364)
# human CD33 E170A = human CD33 E170A (human, UniProt P20138 18-364)
# human CD33 V234A = human CD33 V234A (human, UniProt P20138 18-364)
# human CD33 T192A = human CD33 T192A (human, UniProt P20138 18-364)
# human CD33 T222A = human CD33 T222A (human, UniProt P20138 18-364)
# human CD33 I242A = human CD33 I242A (human, UniProt P20138 18-364)
# human CD33 A182S = human CD33 A182S (human, UniProt P20138 18-364)
# human CD33 G188A = human CD33 G188A (human, UniProt P20138 18-364)
# human CD33 I198A = target: T1, human CD33 I198A (human, UniProt P20138 18-364)
# T1 construct: the '-,' is not explained
# human CD33 R225A = human CD33 R225A (human, UniProt P20138 18-364)
# human CD33 Q204A = human CD33 Q204A (human, UniProt P20138 18-364)
# human CD33 Q228A = human CD33 Q228A (human, UniProt P20138 18-364)
# human CD33 Y233A = human CD33 Y233A (human, UniProt P20138 18-364)
# human CD33 T211A = human CD33 T211A (human, UniProt P20138 18-364)
# human CD33 L271A = human CD33 L271A (human, UniProt P20138 18-364)
# human CD33 A289S = human CD33 A289S (human, UniProt P20138 18-364)
# human CD33 L316A = human CD33 L316A (human, UniProt P20138 18-364)
# human CD33 K283A = human CD33 K283A (human, UniProt P20138 18-364)
# human CD33 S248A = human CD33 S248A (human, UniProt P20138 18-364)
# human CD33 H259A = human CD33 H259A (human, UniProt P20138 18-364)
# human CD33 K313A = human CD33 K313A (human, UniProt P20138 18-364)
# human CD33 G256A = human CD33 G256A (human, UniProt P20138 18-364)
# human CD33 C274A = human CD33 C274A (human, UniProt P20138 18-364)
# human CD33 R296A = human CD33 R296A (human, UniProt P20138 18-364)
# human CD33 A306S = human CD33 A306S (human, UniProt P20138 18-364)
# human CD33 R287A = human CD33 R287A (human, UniProt P20138 18-364)
# human CD33 P244A = human CD33 P244A (human, UniProt P20138 18-364)
# human CD33 G245A = human CD33 G245A (human, UniProt P20138 18-364)
# human CD33 V294A = human CD33 V294A (human, UniProt P20138 18-364)
# human CD33 G304A = human CD33 G304A (human, UniProt P20138 18-364)
# human CD33 T292A = human CD33 T292A (human, UniProt P20138 18-364)
# human CD33 H317A = human CD33 H317A (human, UniProt P20138 18-364)
# human CD33 A290S = human CD33 A290S (human, UniProt P20138 18-364)
# human CD33 T302A = human CD33 T302A (human, UniProt P20138 18-364)
# Chain of human CD33 T222A (P20138 18-364 T222A limits assumed): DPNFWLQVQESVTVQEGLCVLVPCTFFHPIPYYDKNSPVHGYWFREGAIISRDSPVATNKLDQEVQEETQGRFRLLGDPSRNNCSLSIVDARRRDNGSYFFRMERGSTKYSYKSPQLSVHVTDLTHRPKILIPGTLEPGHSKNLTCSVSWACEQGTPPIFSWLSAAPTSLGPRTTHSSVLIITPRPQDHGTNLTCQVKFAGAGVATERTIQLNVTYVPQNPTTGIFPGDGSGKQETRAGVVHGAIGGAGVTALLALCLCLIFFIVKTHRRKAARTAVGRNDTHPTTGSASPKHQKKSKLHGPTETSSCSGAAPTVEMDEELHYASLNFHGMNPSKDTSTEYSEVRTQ
# Chain of human CD33 T208A (P20138 18-364 T208A limits assumed): as the sequence (P20138 18-364 T222A limits assumed) above, with T191A, A205T counted along it
# Chain of human CD33 G188A (P20138 18-364 G188A limits assumed): as the sequence (P20138 18-364 T222A limits assumed) above, with G171A, A205T counted along it
# Chain of human CD33 Q204A (P20138 18-364 Q204A limits assumed): as the sequence (P20138 18-364 T222A limits assumed) above, with Q187A, A205T counted along it
# Chain of human CD33 Y233A (P20138 18-364 Y233A limits assumed): as the sequence (P20138 18-364 T222A limits assumed) above, with A205T, Y216A counted along it
# Chain of human CD33 A182S (P20138 18-364 A182S limits assumed): as the sequence (P20138 18-364 T222A limits assumed) above, with A165S, A205T counted along it
# Chain of human CD33 V221A (P20138 18-364 V221A limits assumed): as the sequence (P20138 18-364 T222A limits assumed) above, with V204A, A205T counted along it
# T1 sequence (P20138 18-364 I198A limits assumed): as the sequence (P20138 18-364 T222A limits assumed) above, with I181A, A205T counted along it
# Chain of human CD33 Q228A (P20138 18-364 Q228A limits assumed): as the sequence (P20138 18-364 T222A limits assumed) above, with A205T, Q211A counted along it
# Chain of human CD33 V234A (P20138 18-364 V234A limits assumed): as the sequence (P20138 18-364 T222A limits assumed) above, with A205T, V217A counted along it
# Chain of human CD33 G172A (P20138 18-364 G172A limits assumed): as the sequence (P20138 18-364 T222A limits assumed) above, with G155A, A205T counted along it
# Chain of human CD33 T211A (P20138 18-364 T211A limits assumed): as the sequence (P20138 18-364 T222A limits assumed) above, with T194A, A205T counted along it
# Chain of human CD33 I242A (P20138 18-364 I242A limits assumed): as the sequence (P20138 18-364 T222A limits assumed) above, with A205T, I225A counted along it
# Chain of human CD33 E170A (P20138 18-364 E170A limits assumed): as the sequence (P20138 18-364 T222A limits assumed) above, with E153A, A205T counted along it
Binder,Mean % WT Binding (human CD33 G172A),Mean % WT Binding (human CD33 V221A),Mean % WT Binding (human CD33 T208A),Mean % WT Binding (human CD33 E170A),Mean % WT Binding (human CD33 V234A),Mean % WT Binding (human CD33 T192A),Mean % WT Binding (human CD33 T222A),Mean % WT Binding (human CD33 I242A),Mean % WT Binding (human CD33 A182S),Mean % WT Binding (human CD33 G188A),Mean % WT Binding (human CD33 I198A),Mean % WT Binding (human CD33 R225A),Mean % WT Binding (human CD33 Q204A),Mean % WT Binding (human CD33 Q228A),Mean % WT Binding (human CD33 Y233A),Mean % WT Binding (human CD33 T211A),Mean % WT Binding (human CD33 L271A),Mean % WT Binding (human CD33 A289S),Mean % WT Binding (human CD33 L316A),Mean % WT Binding (human CD33 K283A),other results
B1,86%,91.9%,101%,90.9%,85.8%,101%,88.7%,77.9%,85.8%,102%,86.7%,97.8%,93.7%,99.4%,115%,82.4%,–,–,–,–,–
B2,109%,92.3%,117%,123%,117%,119%,121%,98.6%,115%,130%,114%,123%,112%,120%,107%,111%,–,–,–,–,–
B3,107%,89%,83.6%,148%,88.7%,102%,117%,128%,127%,85.1%,91.2%,98.9%,126%,157%,146%,96.2%,–,–,–,–,–
B4,90.7%,104%,108%,95.5%,107%,99.7%,109%,104%,108%,91.3%,94.4%,108%,99.8%,112%,98.5%,79.4%,–,–,–,–,–
B5,–,–,–,–,–,–,–,–,–,–,–,–,–,–,–,–,100 % WT binding,97.1 % WT binding,84.6 % WT binding,92.7 % WT binding,Mean % WT Binding (human CD33 S248A): 88.4 % WT binding; Mean % WT Binding (human CD33 H259A): 97.4 % WT binding; Mean % WT Binding (human CD33 K313A): 84.1 % WT binding; Mean % WT Binding (human CD33 G256A): 89.8 % WT binding; Mean % WT Binding (human CD33 C274A): 88.4 % WT binding; Mean % WT Binding (human CD33 R296A): 101 % WT binding; Mean % WT Binding (human CD33 A306S): 102 % WT binding; Mean % WT Binding (human CD33 R287A): 94.7 % WT binding; Mean % WT Binding (human CD33 P244A): 84.3 % WT binding; Mean % WT Binding (human CD33 G245A): 84.3 % WT binding; Mean % WT Binding (human CD33 V294A): 91.7 % WT binding; Mean % WT Binding (human CD33 G304A): 104 % WT binding; Mean % WT Binding (human CD33 T292A): 89.5 % WT binding; Mean % WT Binding (human CD33 H317A): 80.8 % WT binding; Mean % WT Binding (human CD33 A290S): 105 % WT binding; Mean % WT Binding (human CD33 T302A): 95 % WT binding
B6,–,–,–,–,–,–,–,–,–,–,–,–,–,–,–,–,113 % WT binding,111 % WT binding,104 % WT binding,102 % WT binding,Mean % WT Binding (human CD33 S248A): 93.6 % WT binding; Mean % WT Binding (human CD33 H259A): 109 % WT binding; Mean % WT Binding (human CD33 K313A): 108 % WT binding; Mean % WT Binding (human CD33 G256A): 117 % WT binding; Mean % WT Binding (human CD33 C274A): 117 % WT binding; Mean % WT Binding (human CD33 R296A): 111 % WT binding; Mean % WT Binding (human CD33 A306S): 85.1 % WT binding; Mean % WT Binding (human CD33 R287A): 110 % WT binding; Mean % WT Binding (human CD33 P244A): 112 % WT binding; Mean % WT Binding (human CD33 G245A): 112 % WT binding; Mean % WT Binding (human CD33 V294A): 105 % WT binding; Mean % WT Binding (human CD33 G304A): 111 % WT binding; Mean % WT Binding (human CD33 T292A): 94.2 % WT binding; Mean % WT Binding (human CD33 H317A): 99.8 % WT binding; Mean % WT Binding (human CD33 A290S): 120 % WT binding; Mean % WT Binding (human CD33 T302A): 90.7 % WT binding
